{
  "source": "paper PMC10925295",
  "about": "(bioRxiv, 2024)",
  "key": {"[1]": {"molecular_target": "UbcH5B-GSlinker-ccRING3 fusion protein (UniProt Q86YT6)", "test": "crystal structure"}, "SEC-MALS": {"molecular_target": "the molecule itself", "test": "SEC-MALS"}, "crystal structure": {"molecular_target": "the molecule itself", "test": "crystal structure"}},
  "data": [
    {"molecule": "UbcH5B-GSlinker-ccRING3 fusion protein (from UniProt Q86YT6 936-1006)", "values": [
      {"measurement": "stoichiometry N", "setting": "[1]", "result": 2}
    ]},
    {"molecule": "ANK-RING1-3 of hMIB1 (residues 417-1006) (domain or fragment) QLLKKLFETQESGDLNEELVKAAANGDVAKVEDLLKRPDVDVNGQCAGHTAMQAASQNGHVDILKLLLKQNVDVEAEDKDGDRAVHHAAFGDEGAVIEVLHRGSADLNARNKRRQTPLHIAVNKGHLQVVKTLLDFGCHPSLQDSEGDTPLHDAISKKRDDILAVLLEAGADVTITNNNGFNALHHAALRGNPSAMRVLLSKLPRPWIVDEKKDDGYTALHLAALNNHVEVAELLVHQGNANLDIQNVNQQTALHLAVERQHTQIVRLLVRAGAKLDIQDKDGDTPLHEALRHHTLSQLRQLQDMQDVGKVDAAWEPSKNTLIMGLGTQGAEKKSAASIACFLAANGADLSIRNKKGQSPLDLCPDPNLCKALAKCHKEKVSGQVGSRSPSMISNDSETLEECMVCSDMKRDTLFGPCGHIATCSLCSPRVKKCLICKEQVQSRTKIEECVVCSDKKAAVLFQPCGHMCACENCANLMKKCVQCRAVVERRVPFIMCCGGKSSEDATDDISSGNIPVLQKDKDNTNVNADVQKLQQQLQDIKEQTMCPVCLDRLKNMIFLCGHGTCQLCGDRMSECPICRKAIERRILLY", "values": [
      {"measurement": "stoichiometry N", "setting": "SEC-MALS", "result": 2}
    ]},
    {"molecule": "ccRING3 region of human MIB1 (third RING domain and adjacent coiled coil region, residues 936-1006) (domain or fragment) KDKDNTNVNADVQKLQQQLQDIKEQTMCPVCLDRLKNMIFLCGHGTCQLCGDRMSECPICRKAIERRILLY", "values": [
      {"measurement": "stoichiometry N", "setting": "crystal structure", "result": 2}
    ]}
  ]
}
